Our source for the binding result and Kd values is patent US20150017120A1 (MIT, published 2015).

Substitutions are numbered along the chain they refer to. Names and notes keep the numbering of the source.

The chains are these.
B1: E76A IL-2 (ligand)
chain: APTSSSTSSSTAEAQQQQQQQQQQQQHLEQLLMDLQELLSRMENYRNLKLPRMLTFKFYLPKQATELKDLQCLEDALGPLRHVLDLTQSKSFQLEDAENFISNIRVTVVKLKGSDNTFECQFDDESATVVDFLRRWIAFCQSIISTSPQ
notes: also called E76 mutants
B2: E76R mouse IL-2 (ligand)
chain: B1 chain with A76R
notes: also called E76 mutants
B3: E76G IL-2 (ligand)
chain: B1 chain with A76G
notes: also called E76 mutants
B4: E76F mouse IL-2 (ligand)
chain: B1 chain with A76F
notes: also called E76 mutants
B5: D265AFc/IL-2 (Fc fusion)
chain 1: EPRVPITQNPCPPLKECPPCAAPDLLGGPSVFIFPPKIKDVLMISLSPMVTCVVVAVSEDDPDVQISWFVNNVEVHTAQTQTHREDYNSTLRVVSALPIQHQDWMSGKEFKCKVNNRALPSPIEKTISKPRGPVRAPQVYVLPPPAEEMTKKEFSLTCMITGFLPAEIAVDWTSNGRTEQNYKNTATVLDSDGSYFMYSKLRVQKSTWERGSLFACSVVHEGLHNHLTTKTISRSLGKGGGSAPTSSSTSSSTAEAQQQQQQQQQQQQHLEQLLMDLQELLSRMENYRNLKLPRMLTFKFYLPKQATELKDLQCLEDELGPLRHVLDLTQSKSFQLEDAENFISNIRVTVVKLKGSDNTFECQFDDESATVVDFLRRWIAFCQSIISTSPQHHHHHH
chain 2: EPRVPITQNPCPPLKECPPCAAPDLLGGPSVFIFPPKIKDVLMISLSPMVTCVVVAVSEDDPDVQISWFVNNVEVHTAQTQTHREDYNSTLRVVSALPIQHQDWMSGKEFKCKVNNRALPSPIEKTISKPRGPVRAPQVYVLPPPAEEMTKKEFSLTCMITGFLPAEIAVDWTSNGRTEQNYKNTATVLDSDGSYFMYSKLRVQKSTWERGSLFACSVVHEGLHNHLTTKTISRSLGKGGGSDYKDDDDK
notes: also called D265A Fc/wt mIL-2
B6: mIL-2 QQ 6.2-8 (ligand)
chain: APTSSSTSSSTAEAQQQQQQQQHLEQLLMDLQELLSRMEDHRNLRLPRMLTFKFYLPKQATELEDLQCLEDELEPLRQVLDLTQSKSFQLEDAENFISNIRVTVVKLKGSDNTFECQFDDEPATVVDFLRRWIAFCQSIISTSPR
notes: Reversion mutant
B7: mIL-2 QQ 6.2-4 (ligand)
chain: B1 chain with N44D, Y45S, K49R, K68E, A76E, G78E, H82Q, S126P, D131G
B8: mIL-2 QQ 6.2-13 (ligand)
chain: B1 chain with N44D, Y45H, K49R, K62E, A76E, G78E, H82Q, S126P
notes: Reversion mutant
B9: mIL-2 QQ 6.2-10 (ligand)
chain: B1 chain with N44D, Y45H, K49R, K62E, K68E, A76E, G78E, H82Q, S126P
notes: Reversion mutant
B10: mIL-2 QQ 6.2-11 (ligand)
chain: APTSSSTSSSTAEAQQQQQQQQQHLEQLLMDLQELLSRMEDSRNLRLPRMLTFKFYLPEQATELKDLQCLEDELEPLRQVLDLTQSKSFQLEDAENFISNIRVTVVKLKGSDNTFECQFDDEPATVVDFLRRWIAFCQSIISTSPQ
notes: Reversion mutant

In one test the target is T1, soluble murine CD25 (murine, UniProt P01590 22-236, limits assumed).
T1 construct: also called soluble CD25; mouse CD25
T1 sequence (looked up): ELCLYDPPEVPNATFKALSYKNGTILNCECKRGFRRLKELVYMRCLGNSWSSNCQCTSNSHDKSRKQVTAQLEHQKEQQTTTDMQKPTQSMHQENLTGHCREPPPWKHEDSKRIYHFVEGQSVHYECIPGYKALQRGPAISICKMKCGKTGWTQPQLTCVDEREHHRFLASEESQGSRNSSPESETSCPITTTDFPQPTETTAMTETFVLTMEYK
As to the kind of experiment: yeast surface display, labeling with soluble CD25, flow cytometry. The text has this:
While all H82 and Q121 mutants retained CD25 binding, no CD25 binding was detected for E76 mutants (FIG. 4).
On the technique in general: In flow cytometry, cells or beads pass a laser one at a time.
Regarding B1, the binding result was “no binding (tested: 50 nM soluble CD25)”.

With B2, the binding result is “no binding (tested: 5 or 50 nM soluble CD25)”. Still for that read-out and setting: the entry for B3 is “no binding (tested: 50 nM soluble CD25)”.

B4: the binding result is listed as “no binding (tested: 5 or 50 nM soluble CD25)”.

The target of the next test is T1, soluble murine CD25. Kind of test: method not stated (legend of the schematic of Fc/IL-2).
One may read the Kd as the equilibrium constant for the complex coming apart. B5: the Kd is ~50 nM.

The next test concerns the target T1, soluble murine CD25. As to the kind of experiment: yeast surface display, titration with soluble murine CD25.
For the molecule B6, the binding result is on record as “binds”. On to B7, for which the binding result is “binds”. Still for that read-out and setting: the entry for B8 is “binds”. Still for that read-out and setting: the entry for B9 is “binds”; for B10 it is “binds”.
